# According to IntAct's records for PubMed 8848052:
# B1: mRNA export factor GLE1 (Saccharomyces cerevisiae), Q12315 (parent)
# chain: MRFVFDEVFNSDTDSPEFEETCSTTSSTSSQCPTPEPSPAIKLPSFTKVGTKKLVNESVVILDPALENALRDLNLQSKLIPINEPIVAASSIIVPHSTNMPLPRASHSSLLDNAKNSNATAPLLEAIEESFQRKMQNLVLANQKEIQSIRENKRRVEEQRKRKEEEERKRKEAEEKAKREQELLRQKKDEEERKRKEAEAKLAQQKQEEERKKIEEQNEKERQLKKEHEAKLLQQKDKLGKAVTNFDKISKMFWHYKDKIAQIKQDIVLPIKKADVNVRNLLSRHKRKINPKFGQLTNSNQQLFKIQNELTQLINDTKGDSLAYHWILNFIAKAVVHQAETEVRVKPESALPLGKLTLYLLVQFPELQELFMARLVKKCPFVIGFTCEIDTEKGRQNMGWKRNNENKWEDNTSYDERMGGILSLFAIITRLQLPQEFITTTSHPFPIALSWHILARICNTPLNLITNTHFVILGSWWDAAAVQFLQAYGNQASKLLILIGEELTSRMAEKKYVGAARLRILLEAWQNNNMESFPEMSP
# partner: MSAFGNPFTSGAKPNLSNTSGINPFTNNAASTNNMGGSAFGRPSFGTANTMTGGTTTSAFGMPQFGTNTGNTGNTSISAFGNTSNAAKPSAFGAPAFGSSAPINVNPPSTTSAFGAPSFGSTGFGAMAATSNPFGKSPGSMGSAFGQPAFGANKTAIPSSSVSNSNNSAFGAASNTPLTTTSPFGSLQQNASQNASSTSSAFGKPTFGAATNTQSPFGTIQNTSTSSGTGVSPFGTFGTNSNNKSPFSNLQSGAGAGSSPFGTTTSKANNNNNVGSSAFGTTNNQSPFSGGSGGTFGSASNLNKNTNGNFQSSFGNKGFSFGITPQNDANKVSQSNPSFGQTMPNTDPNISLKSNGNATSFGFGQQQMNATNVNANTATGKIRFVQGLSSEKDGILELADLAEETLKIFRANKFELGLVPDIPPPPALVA
# Variants of: B1
# Details: with nup42_yeast NUP42, P49686
row,effect of a mutation on the interaction,Variant
1,decreasing interaction,L356A
